“And” between values parts separate entries of the source, which are not always exact repeats. Equal entries are not always repeated.
Molecular target: His::PfPLSCR (recombinant full-length Plasmodium falciparum phospholipid scramblase with an N-terminal hexa-histidine affinity tag) (P. falciparum)
Test: native gel or EMSA; blue native PAGE (NativePAGE Novex Bis-Tris, G250 additive) of eluted fractions of the main SEC peak; protein purified in 250 mM NaCl, 0.5 mM CaCl2, 1 mM TCEP, 0.1 % FC-12, 25 mM HEPES pH 7.5

stoichiometry N: 2 and 4
Substance: His::PfPLSCR (recombinant full-length Plasmodium falciparum phospholipid scramblase with an N-terminal hexa-histidine affinity tag) (natural protein)

From paper PMC8202325
